T1: Hof1, Q05080
T1 sequence (Q05080 590-669, looked up): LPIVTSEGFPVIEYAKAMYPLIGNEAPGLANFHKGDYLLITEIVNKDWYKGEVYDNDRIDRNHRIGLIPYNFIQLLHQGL

T2: Pex13, P80667
T2 sequence (P80667 295-386, looked up): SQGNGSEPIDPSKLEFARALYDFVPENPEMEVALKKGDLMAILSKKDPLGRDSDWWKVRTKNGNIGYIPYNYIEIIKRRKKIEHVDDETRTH

T3: Lsb1, P53281
T3 sequence (P53281 45-122, looked up): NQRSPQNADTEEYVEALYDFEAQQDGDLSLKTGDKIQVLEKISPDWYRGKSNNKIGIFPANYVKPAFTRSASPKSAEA

T4: Cdc25, P04821
T4 sequence (P04821 50-136, looked up): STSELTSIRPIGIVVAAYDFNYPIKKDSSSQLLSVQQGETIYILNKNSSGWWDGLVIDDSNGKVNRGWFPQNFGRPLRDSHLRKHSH

T5: Bzz1-1, P38822
T5 sequence (P38822 478-572, looked up): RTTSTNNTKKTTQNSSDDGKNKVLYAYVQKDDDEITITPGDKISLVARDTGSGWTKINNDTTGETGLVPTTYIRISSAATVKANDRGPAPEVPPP

T6: Bbc1, P47068
T6 sequence (P47068 1-78, looked up): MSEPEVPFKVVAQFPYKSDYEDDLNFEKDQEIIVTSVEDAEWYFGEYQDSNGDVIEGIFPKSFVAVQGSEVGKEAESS

T7: Hse1, P38753
T7 sequence (P38753 208-285, looked up): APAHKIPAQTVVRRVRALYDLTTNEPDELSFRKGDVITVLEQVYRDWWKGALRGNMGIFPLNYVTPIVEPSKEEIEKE

T8: Cyk3, Q07533
T8 sequence (Q07533 1-83, looked up): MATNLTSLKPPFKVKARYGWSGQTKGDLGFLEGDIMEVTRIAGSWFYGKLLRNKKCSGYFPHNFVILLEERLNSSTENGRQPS

T9: Pin3, Q06449
T9 sequence (Q06449 53-122, looked up): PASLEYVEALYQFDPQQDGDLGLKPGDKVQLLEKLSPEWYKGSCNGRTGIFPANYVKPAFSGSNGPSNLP

T10: Lsb3, P43603
T10 sequence (P43603 385-451, looked up): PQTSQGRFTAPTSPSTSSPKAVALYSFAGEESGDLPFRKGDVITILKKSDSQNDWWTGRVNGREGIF

T11: Boi2, P39969
T11 sequence (P39969 32-116, looked up): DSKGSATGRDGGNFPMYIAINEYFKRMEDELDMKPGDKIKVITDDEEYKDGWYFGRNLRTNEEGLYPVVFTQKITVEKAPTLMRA

T12: Sla1-2, P32790
T12 sequence (P32790 60-140, looked up): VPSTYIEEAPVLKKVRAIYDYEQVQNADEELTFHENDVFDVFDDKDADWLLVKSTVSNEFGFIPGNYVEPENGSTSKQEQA

T13: Sla1-3, P32790
T13 sequence (P32790 344-424, looked up): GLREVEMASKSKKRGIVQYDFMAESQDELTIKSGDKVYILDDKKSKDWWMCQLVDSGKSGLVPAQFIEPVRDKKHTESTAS

T14: Fus1, P11710
T14 sequence (P11710 432-512, looked up): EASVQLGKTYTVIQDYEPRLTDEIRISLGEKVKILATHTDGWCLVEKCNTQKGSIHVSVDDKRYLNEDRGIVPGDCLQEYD

T15: Lsb4, P32793
T15 sequence (P32793 402-468, looked up): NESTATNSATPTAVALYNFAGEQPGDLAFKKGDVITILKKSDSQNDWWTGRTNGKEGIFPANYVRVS

T16: Bzz1-2, P38822
T16 sequence (P38822 568-633, looked up): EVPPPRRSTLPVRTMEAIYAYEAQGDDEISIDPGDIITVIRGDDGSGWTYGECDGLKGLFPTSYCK

T17: Myo5, Q04439
T17 sequence (Q04439 1072-1160, looked up): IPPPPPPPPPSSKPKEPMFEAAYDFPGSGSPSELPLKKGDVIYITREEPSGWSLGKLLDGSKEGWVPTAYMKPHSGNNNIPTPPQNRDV

T18: Boi1, P38041
T18 sequence (P38041 1-86, looked up): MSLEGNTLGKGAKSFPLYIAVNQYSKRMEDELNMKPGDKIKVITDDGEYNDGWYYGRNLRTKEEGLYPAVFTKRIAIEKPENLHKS

T19: Nbp2, Q12163
T19 sequence (Q12163 103-180, looked up): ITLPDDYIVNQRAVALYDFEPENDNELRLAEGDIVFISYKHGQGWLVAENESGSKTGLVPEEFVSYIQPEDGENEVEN

T20: Abp1, P15891
T20 sequence (P15891 535-592, looked up): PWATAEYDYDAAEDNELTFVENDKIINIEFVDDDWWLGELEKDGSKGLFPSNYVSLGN

T21: Bud14, P27637
T21 sequence (P27637 247-328, looked up): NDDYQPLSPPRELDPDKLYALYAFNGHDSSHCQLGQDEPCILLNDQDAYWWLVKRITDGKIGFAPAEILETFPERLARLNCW

B1: unnamed (peptide)
chain: SKSRLLIELPEGFFT
B2: unnamed (peptide)
chain: RFKRHRLEFPFNESE
B3: unnamed (peptide)
chain: SNRRPVPRRPSQPLN

Assays:
Test in all cases: SPOT array
Hof1, Q05080 = target: T1, Hof1, Q05080; settings: median of control spots 4086
Pex13, P80667 = target: T2, Pex13, P80667; settings: median of control spots 1341
Lsb1, P53281 = target: T3, Lsb1, P53281; settings: median of control spots 388
Cdc25, P04821 = target: T4, Cdc25, P04821; settings: median of control spots 969
Bzz1-1, P38822 = target: T5, Bzz1-1, P38822; settings: median of control spots 4446
Bbc1, P47068 = target: T6, Bbc1, P47068; settings: median of control spots 796
Hse1, P38753 = target: T7, Hse1, P38753; settings: median of control spots 1727
Cyk3, Q07533 = target: T8, Cyk3, Q07533; settings: median of control spots 1451
Pin3, Q06449 = target: T9, Pin3, Q06449; settings: median of control spots 2171
Lsb3, P43603 = target: T10, Lsb3, P43603; settings: median of control spots 406
Bem1-1, P29366 = settings: median of control spots 4282
Boi2, P39969 = target: T11, Boi2, P39969; settings: median of control spots 1161
Sla1-2, P32790 = target: T12, Sla1-2, P32790; settings: median of control spots 712
Sla1-3, P32790 = target: T13, Sla1-3, P32790; settings: median of control spots 5475
Fus1, P11710 = target: T14, Fus1, P11710; settings: median of control spots 1200
Lsb4, P32793 = target: T15, Lsb4, P32793; settings: median of control spots 397
Bzz1-2, P38822 = target: T16, Bzz1-2, P38822; settings: median of control spots 4538
GST = settings: median of control spots 978
Myo5, Q04439 = target: T17, Myo5, Q04439; settings: median of control spots 471
Sho1, P40073 = settings: median of control spots 1148
Boi1, P38041 = target: T18, Boi1, P38041; settings: median of control spots 1162
Bem1-2, P29366 = settings: median of control spots 4347
Nbp2, Q12163 = target: T19, Nbp2, Q12163; settings: median of control spots 357
Abp1, P15891 = target: T20, Abp1, P15891; settings: median of control spots 935
Rvs167, P39743 = settings: median of control spots 2707
Myo3, P36006 = settings: median of control spots 468
Bud14, P27637 = target: T21, Bud14, P27637; settings: median of control spots 956

Sequence of Rvs167, P39743 (P39743 419-482): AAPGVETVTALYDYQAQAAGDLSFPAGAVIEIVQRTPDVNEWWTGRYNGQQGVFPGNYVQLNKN
Sequence of Sho1, P40073 (P40073 287-367): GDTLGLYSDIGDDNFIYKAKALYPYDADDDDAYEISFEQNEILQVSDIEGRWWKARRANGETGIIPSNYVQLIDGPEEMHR
Sequence of Bem1-2, P29366 (P29366 139-227): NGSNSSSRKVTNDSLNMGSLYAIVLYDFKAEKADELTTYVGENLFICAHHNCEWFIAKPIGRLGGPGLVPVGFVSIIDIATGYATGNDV
Sequence of Bem1-1, P29366 (P29366 55-141): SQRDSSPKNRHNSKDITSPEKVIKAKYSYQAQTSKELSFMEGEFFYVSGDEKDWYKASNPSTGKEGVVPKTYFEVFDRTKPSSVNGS

Row | Binder | SPOT intensity (Hof1, Q05080) | SPOT intensity (Pex13, P80667) | SPOT intensity (Lsb1, P53281) | SPOT intensity (Cdc25, P04821) | SPOT intensity (Bzz1-1, P38822) | SPOT intensity (Bbc1, P47068) | SPOT intensity (Hse1, P38753) | SPOT intensity (Cyk3, Q07533) | SPOT intensity (Pin3, Q06449) | SPOT intensity (Lsb3, P43603) | SPOT intensity (Bem1-1, P29366) | SPOT intensity (Boi2, P39969) | SPOT intensity (Sla1-2, P32790) | SPOT intensity (Sla1-3, P32790) | SPOT intensity (Fus1, P11710) | SPOT intensity (Lsb4, P32793) | SPOT intensity (Bzz1-2, P38822) | SPOT intensity (GST) | SPOT intensity (Myo5, Q04439) | SPOT intensity (Sho1, P40073) | further results
1 | B1 | 0 | 14 | 0 | 66 | 1 | 0 | 0 | 0 | 4 | 0 | 0 | 1 | 0 | 0 | 0 | 0 | 0 | 0 | 0 | 10 | SPOT intensity (Boi1, P38041): 1; SPOT intensity (Bem1-2, P29366): 0; SPOT intensity (Nbp2, Q12163): 0; SPOT intensity (Abp1, P15891): 0; SPOT intensity (Rvs167, P39743): 0; SPOT intensity (Myo3, P36006): 0; SPOT intensity (Bud14, P27637): 1
2 | B2 | 9 | 13 | 53 | 142 | 0 | 36 | 32 | 0 | 15 | 0 | 1 | 0 | 0 | 97 | 34 | 0 | 7 | 0 | 0 | 41 | SPOT intensity (Boi1, P38041): 0; SPOT intensity (Bem1-2, P29366): 4; SPOT intensity (Nbp2, Q12163): 14; SPOT intensity (Abp1, P15891): 36; SPOT intensity (Rvs167, P39743): 0; SPOT intensity (Myo3, P36006): 0; SPOT intensity (Bud14, P27637): 4
3 | B3 | 18 | 129 | 576 | 35 | 0 | 248 | 9 | 0 | 12 | 183 | 1 | 1 | 0 | 459 | 0 | 333 | 60 | 0 | 0 | 31 | SPOT intensity (Boi1, P38041): 2; SPOT intensity (Bem1-2, P29366): 29; SPOT intensity (Nbp2, Q12163): 46; SPOT intensity (Abp1, P15891): 139; SPOT intensity (Rvs167, P39743): 3400; SPOT intensity (Myo3, P36006): 3; SPOT intensity (Bud14, P27637): 16

From article PMC2756588
